Key:
[1] = target: Chicken gizzard tropomyosin (Tpm), purified (chicken); assay: competition with 10 nM biotin-HKa on plate coated with chicken gizzard Tpm, 10 µM ZnCl2
[2] = target: Chicken gizzard tropomyosin (Tpm), purified (chicken); assay: competition ELISA against 10 nM biotin-HKa on immobilized chicken gizzard Tpm, 10 uM ZnCl2; Kd by non-linear regression
[3] = target: Chicken gizzard tropomyosin (Tpm), purified (chicken); assay: plate assays on immobilized chicken gizzard Tpm (FIGS. 14 and 15)
[4] = target: Tropomyosin (Tpm) exposed on the surface of proliferating human umbilical vein endothelial cells (human); assay: biotin-HKa on unfixed subconfluent HUVEC in 96-well plates, 4 °C, with and without 10 µM Zn2+, streptavidin-peroxidase; nonlinear regression

Chain of Chicken gizzard tropomyosin (Tpm), purified (chicken) (chain, as listed by the source limits assumed): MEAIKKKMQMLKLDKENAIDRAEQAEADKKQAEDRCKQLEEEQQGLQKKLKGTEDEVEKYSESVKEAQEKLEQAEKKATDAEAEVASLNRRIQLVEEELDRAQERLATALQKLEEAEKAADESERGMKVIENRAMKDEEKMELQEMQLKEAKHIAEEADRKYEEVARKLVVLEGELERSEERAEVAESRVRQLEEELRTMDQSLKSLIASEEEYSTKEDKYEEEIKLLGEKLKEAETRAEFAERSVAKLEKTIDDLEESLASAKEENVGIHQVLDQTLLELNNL
Chain of Endostatin (ligand) (P39060 1572-1754): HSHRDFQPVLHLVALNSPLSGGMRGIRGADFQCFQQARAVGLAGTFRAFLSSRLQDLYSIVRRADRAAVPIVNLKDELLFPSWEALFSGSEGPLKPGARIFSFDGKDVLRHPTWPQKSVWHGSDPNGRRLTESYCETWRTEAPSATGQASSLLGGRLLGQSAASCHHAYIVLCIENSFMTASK

Row | Kd [1] | Kd [2] | fold lower affinity than HKa or HKa-D5 [3] | Kd [4] | Substance
1 | 2000 nM | 1970 nM | 1000 fold |  | Endostatin (ligand)
2 |  |  |  | 2.5 nM | Two-chain high molecular weight kininogen (HKa) (from UniProt P01042 19-380; P01042 390-644) (ligand)

From patent publication US20050124794A1, “Cell surface tropomyosin as a target of angiogenesis inhibition” (priority 2002, published 2005)
